± gives the uncertainty stated by the source.
Assay: amyloid nucleation score (Sup35N fusion, yeast selection) (log enrichment); library NNK2; higher = more nucleation; inactive = no reads after selection
How it was run: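 DiMSum was used to calculate nucleation scores as log enrichment of output over input reads, centred on the mode score of non-aggregating sequences. Sequences with fewer than 100 input reads were not scored. Input and output came from Illumina sequencing of plasmid inserts in psi-negative yeast expressing peptides of 20 random codons fused to Sup35N, induced 24 hours with 100 μM copper sulfate and then grown 7 days at 30°C on medium lacking adenine and uracil.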

| Substance | amyloid nucleation score |
| --- | --- |
| IDDVEGPVAPFGIATVQDQP | 1.51 ± 0.46 |
| IDFSRQTYLNCKKSRSSLLS | -0.437 ± 0.61 |
| IDIEMIYERKPVGRIFSDT | -1.25 ± 0.42 |
| IDLFVCAESMDRRGVTIPRS | 0.041 ± 0.35 |
| IDSDKEAFRTFLWTLDMYRL | -0.536 ± 1 |
| IDVMVMVRQSAKEQSSVRGC | 1.34 ± 0.2 |
| IDWCFGRRENVGGHVRWRNG | 1.48 ± 0.3 |
| IELFVSWKIGWVELRDVLLV | -0.055 ± 0.55 |
| IELLYIRYK | -2.09 ± 1.1 |
| IEPKHWIYTSGGLTRGRLYG | 0.073 ± 1.1 |
| IERRVTWFLTLARCKLPTGQ | 0.796 ± 0.33 |
| IESRL | inactive |
| IESRVWVGWSDD | -0.044 ± 0.49 |
| IETCKKAHRSKYTLFGLLLY | -0.383 ± 0.63 |
| IFCRIDYIYVYLHHVYVTVQ | 5.228 ± 0.036 |
| IFDRNSYFKEHFVMIGLEGR | 0.228 ± 1 |
| IFEAVVRVG | inactive |
| IFHVIVWLFEDAFVQVQNYR | 4.29 ± 0.078 |
| IFKSHIPW | -1.22 ± 0.48 |
| IFLSSDLTDGVYSSLYDPID | 0.042 ± 1.1 |
| IFNDVIFNLRFC | 7.443 ± 0.054 |
| IFRAYIAGKTIYRCDQYVGM | -0.539 ± 0.55 |
| IFSHFILCKQAAVCTVNEFR | 5.08 ± 0.072 |
| IFSNLRSFE | 0.657 ± 0.22 |

| Substance | amyloid nucleation score |
| --- | --- |
| IFVALEIGVVNVDQVAKDVC | 6.75 ± 0.069 |
| IFWTELCNPKFSFC | 9.439 ± 0.023 |
| IFYCFGKLDA | 5.18 ± 0.072 |
| IFYYG | -0.945 ± 0.36 |
| IGCGARLEGKMMACMSRDRQ | 0.461 ± 0.64 |
| IGCLVYHIITRVFVFVSPLF | inactive |
| IGDSVGSDWTSTFMCDSVCR | -0.15 ± 0.42 |
| IGLANSSVCFSAFVTWYSLH | inactive |
| IGNRQVDFISDGAG | 0.034 ± 1.1 |
| IGSVDDLNLKRICNDLDTP | 0.182 ± 0.79 |
| IGTEWVFVM | 0.17 ± 0.64 |
| IGTLSRNERASRNTHWDILT | 0.757 ± 0.47 |
| IGVQVFPRMHVG | 3.06 ± 0.15 |
| IHASSVILITCFEFNFYYFA | 4.64 ± 0.057 |
| IHDWKQSYVNVC | 0.084 ± 0.45 |
| IHIWGSLSIDIEFVCGMKAR | 1.04 ± 0.56 |
| IHKAGFKDKGC | inactive |
| IHLQIWAFFMLRIPPGRNKT | -0.636 ± 0.76 |
| IHLRWPMKRLVYTYCFYFYS | -0.788 ± 0.76 |
| IHLWICSISYNAVSIRFTSY | 1.42 ± 0.097 |
| IHRPTRFYTFSSSTSEQA | 0.351 ± 0.64 |
| IHYFRTWVYHYGLRGFGIIR | 0.918 ± 0.58 |
| IIALKMVVLIKCIKVY | inactive |
| IICMEVIFSLANCADWRTAV | 3.53 ± 0.12 |

| Substance | amyloid nucleation score |
| --- | --- |
| IICTSSPQLIVYTSVRS | 7.08 ± 0.042 |
| IIGAWKM | 0.992 ± 0.33 |
| IIHDEVSLPWI | inactive |
| IILRSCMYCGSLAIIKGWMS | 2.91 ± 0.12 |
| IINYANLSTVVNFYIRIGYC | 6.812 ± 0.028 |
| IIPFRRSTVRLVRCLWISGL | 1.13 ± 0.31 |
| IIRPVFILNLPYLFRCVG | 0.465 ± 0.28 |
| IKCRVITQSCIPSSINRLDG | -0.114 ± 1.1 |
| IKGTQSVRDTVSLVVIKDVW | 0.627 ± 0.4 |
| IKGVRQHLTTYKGTL | -0.408 ± 0.49 |
| IKRSMCICY | 0.089 ± 1.1 |
| IKSLSMRYFIRLFRY | inactive |
| IKSRICISSYNNDMCGRFVL | -1.86 ± 0.62 |
| IKTIADIYCISQSRIGSKLT | inactive |
| IKVSFRRTGGLLHLCKWLTC | -0.5 ± 0.33 |
| IKWSLHRYYFVMFICSFIAS | -0.83 ± 0.61 |
| IKYNEVVVVRWEANGRFE | 4 ± 0.063 |
| ILATSRVILVFCAMCACRWG | 2.98 ± 0.062 |
| ILCFGFITTNSIRLQSPMVV | 0.753 ± 0.51 |
| ILCLFTLSSSKCYGG | 5.689 ± 0.037 |
| ILEFKINPG | -1.05 ± 0.43 |
| ILIREPLHDIGNVNLLVRSS | -0.359 ± 0.48 |
| ILKIYVGQSSPLYFACLHIK | inactive |
| ILLQLSIKRSVASSWLHNGR | 3.61 ± 0.046 |

| Substance | amyloid nucleation score |
| --- | --- |
| ILLYNCCCEGWACKSWLGSH | inactive |
| ILSFM | -1.27 ± 1 |
| ILTFRVYPIPFDFYFGGLEL | 0.034 ± 1.1 |
| ILVTVNTGSFLKSILHWL | 2.31 ± 0.19 |
| ILWWNKAMGCFNELVLGRRV | -0.016 ± 0.79 |
| ILYKYETLMLFLSSEYNVIC | 3.9 ± 0.039 |
| ILYLGHN | -1.61 ± 0.64 |
| IMDLAKVCEGVLSSGRVALI | 0.096 ± 0.29 |
| IMFMGNTVIRDCDLQ | 4.32 ± 0.062 |
| IMLLNLYKDGSGGRRSKLLQ | -0.09 ± 0.33 |
| IMMNNMAVIFR | 6.3 ± 0.083 |
| IMSFKFENC | 1.78 ± 0.26 |
| IMWYFIINWHP | 4.79 ± 0.074 |
| IMYCCVMLIFTMSVVEWGFT | -0.383 ± 1 |
| IMYLLGKGLWTVAVYPSRYP | -0.806 ± 0.61 |
| INDSEVMRICLPVGFGHLEG | 2.45 ± 0.077 |
| INGNFVIKKCYRGYVS | -0.557 ± 1.1 |
| INIRLFFHDFTRMGSELIGY | 0.318 ± 0.8 |
| INKVFNCYFLFSGHIVGLRS | -0.321 ± 0.79 |
| INQKDRRGNPYY | -0.042 ± 0.79 |
| INWCSDMHNCVCLTIGQWLV | 3.36 ± 0.16 |
| IPRFRLYANCRMFNRV | 0.056 ± 0.39 |
| IPRSPCDKENKSRHLHVAWA | -0.372 ± 0.45 |
| IPSRFPNFNR | -1.62 ± 0.55 |

| Substance | amyloid nucleation score |
| --- | --- |
| IPTACEHKRSPRVQPQRNSA | 0.163 ± 0.4 |
| IQGFGLKLVEIYWEARQLVH | inactive |
| IQIFGVTYGSG | -0.007 ± 0.79 |
| IREEGQFSLAVFSYMKVSPY | 2.95 ± 0.071 |
| IREGLFRVTIDYSSMLCSGR | 3.01 ± 0.12 |
| IREPSCWFLFFIKINAGDAV | inactive |
| IRFWSKSGFVQGCSIRISLS | 0.02 ± 1 |
| IRGLGWSAPLRVIRVAPTYV | 0.501 ± 0.57 |
| IRIACSGLSDRFMNRVHLHS | -0.017 ± 0.46 |
| IRIGFRMHCLVIQYMNCFIS | 2.18 ± 0.075 |
| IRKYVAWNLRALTMAMIQQR | -0.959 ± 0.48 |
| IRMGRANRWEVLARWTSVVA | 9.548 ± 0.079 |
| IRNILWVLPKVVSDAFI | 0.325 ± 0.57 |
| IRRFRGLTSRSTRCSKGSKG | -0.072 ± 0.45 |
| IRSSSSGNQSQVFSPRDNPP | -0.381 ± 0.31 |
| IRVNMSVTITRGWICHRLCK | 0.293 ± 0.27 |
| IRYDLQQGQFPPTRMECLVL | 0.437 ± 0.27 |
| ISAETPMIAFCLVPLNPRSV | 1.06 ± 0.68 |
| ISASGVDSDEGVRPGQLMMC | 10.4 ± 0.065 |
| ISCCDRGCDAYLEVWPKLNK | -0.523 ± 1 |
| ISDGCCGMLNAYCFTLVNCK | 4.18 ± 0.062 |
| ISEFHGYSMFKHEARQNGCQ | 5.516 ± 0.033 |
| ISGFRPSAYWSVLNWNSSL | -1.78 ± 1.1 |
| ISHTLHATITVLLVSNFCLS | 0.475 ± 0.43 |

| Substance | amyloid nucleation score |
| --- | --- |
| ISLFDYGQGMFHRCFMAVKG | -0.131 ± 0.6 |
| ISPNALEAQMPTQCNYEDGE | 0.451 ± 0.48 |
| ISSSKRYVLKS | 0.583 ± 0.39 |
| ITADNVKSNHKAVVMNDIHG | -0.133 ± 0.49 |
| ITAFTNRVKFWS | 0.132 ± 0.36 |
| ITFMVLM | 6.6 ± 0.074 |
| ITIYQYTNYLYGSWCNHLML | 0.157 ± 1 |
| ITLTLTVCTGLCWKYGRRMW | 4.49 ± 0.071 |
| ITMSYTLGPSCFFWSLADTY | 8.218 ± 0.065 |
| ITSHVDAAVEFPNVSFSHGV | 1.37 ± 0.47 |
| ITSLCYNVREFFWGRYVSRV | inactive |
| ITTHMCYVFMWREIRAKDVD | 0.484 ± 0.8 |
| ITVFAGFLRCCYLCFLDNHS | inactive |
| IVAEMW | 1.75 ± 0.4 |
| IVCLYKKCLLCGLHLVVSIV | -0.608 ± 0.53 |
| IVDGEKYDLVWMFEGHG | -0.536 ± 0.39 |
| IVDKVGHRVYEFVIYLTEDG | inactive |
| IVDSIFTFGTRVDGWLGDCA | -0.259 ± 0.32 |
| IVFFVSWLIKCKPWFLVVNM | inactive |
| IVFLCSRKCNVNMYGL | 10.7 ± 0.071 |
| IVISWIPDNPNQMDALCRRY | 0.912 ± 0.34 |
| IVKYLVCEQTKILCMMCTCD | 8.891 ± 0.068 |
| IVNLARLKCSMCRECCGRVL | 2.64 ± 0.12 |
| IVQLVIAVTGMFLYWNYAFL | -0.461 ± 0.43 |

| Substance | amyloid nucleation score |
| --- | --- |
| IVRNPKLMLSNGH | 0.907 ± 0.58 |
| IVSIFSWTEIRATLG | -1.87 ± 0.55 |
| IVSLLLRQSQ | 4.41 ± 0.061 |
| IVSTV | 0.655 ± 0.49 |
| IVVKFCWCVGQSRYTGMSTN | 6.71 ± 0.052 |
| IWFRIQVCEIPSLIQTIVRR | -0.064 ± 0.32 |
| IWGGKDLFGGQDWNTLSYLP | -0.283 ± 0.6 |
| IWHSVWYP | -0.318 ± 0.76 |
| IWIKVTRLRVGFLKRVLVVA | -1.44 ± 0.55 |
| IWNWRQYLYVLGADRFSYMC | 4.19 ± 0.049 |
| IWPMEWNCTMDYRSPWMRHR | 2.06 ± 0.07 |
| IWTDVRLGGRDIVLDSRVYF | 2.14 ± 0.098 |
| IWTSRQTTIEAITRAHNPST | 3.83 ± 0.084 |
| IYCLATVMDMICVYGWICAW | 0.049 ± 0.34 |
| IYFKIIQDKFQTRMCSNKSW | inactive |
| IYIWCARHEILWYRNGWGRG | 0.2 ± 0.36 |
| IYNLWYGISPSVMGGLGFLR | 3.82 ± 0.062 |
| IYNVSQLRTGTDMFNL | 0.721 ± 0.51 |
| IYPLWLMKSGIRLLCGKMCL | 0.607 ± 0.34 |
| IYSEWLSLVYSLGAPVTLNS | -0.015 ± 0.46 |
| IYSYYGCYLCRNCGLVKFSK | 4.03 ± 0.07 |
| IYTLP | inactive |
| IYVECWRHRLILCIHA | 0.214 ± 0.49 |
| IYVPIGATQ | -1.26 ± 0.78 |

Reference: the supplement of paper PMC12042874
